± gives the standard deviation of the averaged measurements.
B1: library; a variant is named by its letters at N, in order (parent)
chain: GCUGUCACCGGUGUAUUACCCUAGUGGUCGACCGGUCUGAUGAGUCUNNNNNNAGACGAAACAGC

Experiments:
hypoxanthine [1] = variants of: B1; assay: normalized RNA/DNA level with ligand (relative to sTRSVctl = 100) (log10 (% of sTRSVctl)); ligand: hypoxanthine (xanthine aptamer); higher = less ribozyme self-cleavage, higher mRNA level; settings: ligand concentration (+) RNA-Seq: 5 mM, HEK293T, reporter: mCherry (pCS4076), ligand present: yes
How it was run: (§1)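 Library plasmids encoding reporter-linked ribozyme switches (mCherry, or eGFP for some folinic acid experiments) were transfected into HEK293T at 4 µg per 6-well well. Ligand, when used, was added 1 h before transfection. Total RNA was extracted with EDTA 72 h later, then reverse-transcribed, amplified, barcoded and sequenced. RNA level was RNA reads over DNA reads, divided by a spiked-in non-cleaving control (or the top 25 sequences), ×100, log10; only sequences with ≥100 DNA reads were kept.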

hypoxanthine [2] = variants of: B1; assay: normalized RNA/DNA level without ligand (relative to sTRSVctl = 100) (log10 (% of sTRSVctl)); ligand: hypoxanthine (xanthine aptamer); higher = less ribozyme self-cleavage, higher mRNA level; settings: HEK293T, reporter: mCherry (pCS4076), ligand present: no
How it was run: as §1

Variant | normalized RNA/DNA level with ligand (log10) (hypoxanthine [1]) | normalized RNA/DNA level without ligand (log10) (hypoxanthine [2])
GCUGUCACCGGUGUAUUACCCUAGUGGUCGACCGGUCUGAUGAGUCUCAUCCGAGACGAAACAGC [CAUCCG] | 1.95 ± 0.026 | 1.91 ± 0.029
GCUGUCACCGGUGUAUUACCCUAGUGGUCGACCGGUCUGAUGAGUCUCAUCCUAGACGAAACAGC [CAUCCU] | 1.94 ± 0.066 | 1.94 ± 0.023
GCUGUCACCGGUGUAUUACCCUAGUGGUCGACCGGUCUGAUGAGUCUCAUCGCAGACGAAACAGC [CAUCGC] | 1.97 ± 0.064 | 1.9 ± 0.021
GCUGUCACCGGUGUAUUACCCUAGUGGUCGACCGGUCUGAUGAGUCUCAUCGGAGACGAAACAGC [CAUCGG] | 1.92 ± 0.055 | 1.63 ± 0.036
GCUGUCACCGGUGUAUUACCCUAGUGGUCGACCGGUCUGAUGAGUCUCAUCGUAGACGAAACAGC [CAUCGU] | 2 ± 0.038 | 1.94 ± 0.025
GCUGUCACCGGUGUAUUACCCUAGUGGUCGACCGGUCUGAUGAGUCUGAUCGAAGACGAAACAGC [GAUCGA] | 1.952 ± 0.0048 | 1.809 ± 0.0024
GCUGUCACCGGUGUAUUACCCUAGUGGUCGACCGGUCUGAUGAGUCUGAUCGUAGACGAAACAGC [GAUCGU] | 1.96 ± 0.11 | 1.838 ± 0.013
GCUGUCACCGGUGUAUUACCCUAGUGGUCGACCGGUCUGAUGAGUCUGAUCGCAGACGAAACAGC [GAUCGC] | 1.93 ± 0.023 | 1.8 ± 0.053
GCUGUCACCGGUGUAUUACCCUAGUGGUCGACCGGUCUGAUGAGUCUUAUCGAAGACGAAACAGC [UAUCGA] | 1.92 ± 0.035 | 1.76 ± 0.046
GCUGUCACCGGUGUAUUACCCUAGUGGUCGACCGGUCUGAUGAGUCUUAUCGUAGACGAAACAGC [UAUCGU] | 1.9 ± 0.052 | 1.7 ± 0.091
GCUGUCACCGGUGUAUUACCCUAGUGGUCGACCGGUCUGAUGAGUCUGAUCUAAGACGAAACAGC [GAUCUA] | 1.95 ± 0.055 | 1.86 ± 0.033
GCUGUCACCGGUGUAUUACCCUAGUGGUCGACCGGUCUGAUGAGUCUGAUCUCAGACGAAACAGC [GAUCUC] | 1.939 ± 0.0052 | 1.976 ± 0.0046
GCUGUCACCGGUGUAUUACCCUAGUGGUCGACCGGUCUGAUGAGUCUUAUCUAAGACGAAACAGC [UAUCUA] | 1.92 ± 0.059 | 1.89 ± 0.024
GCUGUCACCGGUGUAUUACCCUAGUGGUCGACCGGUCUGAUGAGUCUAAUCUCAGACGAAACAGC [AAUCUC] | 2 ± 0.062 | 2.023 ± 0.02
GCUGUCACCGGUGUAUUACCCUAGUGGUCGACCGGUCUGAUGAGUCUCAUCUAAGACGAAACAGC [CAUCUA] | 2.01 ± 0.12 | 1.85 ± 0.055
GCUGUCACCGGUGUAUUACCCUAGUGGUCGACCGGUCUGAUGAGUCUCAUCUCAGACGAAACAGC [CAUCUC] | 1.957 ± 0.0025 | 2.01 ± 0.021
GCUGUCACCGGUGUAUUACCCUAGUGGUCGACCGGUCUGAUGAGUCUGAUCCUAGACGAAACAGC [GAUCCU] | 1.979 ± 0.014 | 1.948 ± 0.012
GCUGUCACCGGUGUAUUACCCUAGUGGUCGACCGGUCUGAUGAGUCUAAUCGCAGACGAAACAGC [AAUCGC] | 1.92 ± 0.03 | 1.82 ± 0.053
GCUGUCACCGGUGUAUUACCCUAGUGGUCGACCGGUCUGAUGAGUCUAAUCGAAGACGAAACAGC [AAUCGA] | 1.92 ± 0.076 | 1.63 ± 0.034
GCUGUCACCGGUGUAUUACCCUAGUGGUCGACCGGUCUGAUGAGUCUAAUCGUAGACGAAACAGC [AAUCGU] | 1.94 ± 0.023 | 1.69 ± 0.022
GCUGUCACCGGUGUAUUACCCUAGUGGUCGACCGGUCUGAUGAGUCUUAUCCUAGACGAAACAGC [UAUCCU] | 1.958 ± 0.0052 | 1.9 ± 0.03

Reference: the supplement of paper PMC6757056
